The record followed here is the supplement of paper PMC10567573.

B1: NEK8 (parent)
chain: YTFGSNQHGQLGTNTRRGSRAPCK
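Also: lentivirally expressed fusions sorted by FACS into six bins by GFP to DsRed ratio, PSI derived from sequencing read proportions per bin multiplied by bin number.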

Variants of B1 are the subject of the series. Briefly: protein stability index of a GFP-peptide fusion (GPS, HEK-293T) (PSI 1-6); higher = more stable. Conditions: c terminus: a fixed tail appended.
Take YTFGSNQHGQLGFNTRRGSRAPCK [T13F]: the protein stability index amounted to 3.31. Consider YTFGSNQHGQLGGNTRRGSRAPCK [T13G], for which the protein stability index came out at 4.43. As for YTFGSNQHGQLGSNTRRGSRAPCK [T13S], the protein stability index is 4.3. With YTFGSNQHGQLGENTRRGSRAPCK [T13E] the figure was 4.37; with YTFGSNQHGQLGYNTRRGSRAPCK [T13Y], 3.62. Consider YTFGSNQHGQLGKNTRRGSRAPCK [T13K], for which the protein stability index stood at 3.79. As to YTFGSNQHGQLGHNTRRGSRAPCK [T13H], the protein stability index was found to be 4.35. With YTFGSNQHGQLGNNTRRGSRAPCK [T13N], the protein stability index came out at 4.06. In the case of YTFGSNQHGQLGPNTRRGSRAPCK [T13P], the protein stability index is 4.45.

Regarding YTFGSNQHGQLGCNTRRGSRAPCK [T13C], the protein stability index worked out at 3.13. For the variant YTFGSNQHGQLGINTRRGSRAPCK [T13I], the protein stability index amounted to 3.15. With YTFGSNQHGQLGWNTRRGSRAPCK [T13W] the figure was 3.22; with YTFGSNQHGQLGTNTRDGSRAPCK [R17D], 3.84; with YTFGSNQHGQLGTNTRCGSRAPCK [R17C], 3.07.

For YTFGSNQHGQLGTNTRAGSRAPCK [R17A], the protein stability index came out at 3.46.

For YTFGSNQHGQLGTNTRGGSRAPCK [R17G], the protein stability index worked out at 4.09. For YTFGSNQHGQLGTNTRFGSRAPCK [R17F], the protein stability index amounted to 3.18. Turning to YTFGSNQHGQLGTNTREGSRAPCK [R17E], the protein stability index came out at 4.07. Turning to YTFGSNQEGQLGTNTRRGSRAPCK [H8E], the protein stability index amounted to 4.47. For YTFGSNQFGQLGTNTRRGSRAPCK [H8F], the protein stability index was 3.23. Turning to YTFGSNQWGQLGTNTRRGSRAPCK [H8W], the protein stability index was 2.36.

As to YTFGSNQTGQLGTNTRRGSRAPCK [H8T], the protein stability index was determined as 3.87. For the variant YTFGSNQGGQLGTNTRRGSRAPCK [H8G], the protein stability index is 3.61. YTFGSNQPGQLGTNTRRGSRAPCK [H8P]: the protein stability index stood at 3.97. As for YTFGSNQNGQLGTNTRRGSRAPCK [H8N], the protein stability index came to 3.99. YTFGSNQMGQLGTNTRRGSRAPCK [H8M]: the protein stability index came out at 3.75. Then YTFGSNQQGQLGTNTRRGSRAPCK [H8Q], with 3.92; and YTFGSNQSGQLGTNTRRGSRAPCK [H8S], with 3.77; and YTFGSNQCGQLGTNTRRGSRAPCK [H8C], with 3.94. YTFGSNQAGQLGTNTRRGSRAPCK [H8A]: the protein stability index amounted to 3.98.

As for YTFGSNQYGQLGTNTRRGSRAPCK [H8Y], the protein stability index was 3.36. YTFGSNQVGQLGTNTRRGSRAPCK [H8V]: the protein stability index was 4.01. Then YTFGSNQKGQLGTNTRRGSRAPCK [H8K], with 4. With YTFGSNQDGQLGTNTRRGSRAPCK [H8D], the protein stability index came out at 4.15. Take YTFGSNQIGQLGTNTRRGSRAPCK [H8I]: the protein stability index worked out at 3.48. On to YTFGSNQRGQLGTNTRRGSRAPCK [H8R], for which the protein stability index is 3.92. Then YTFGSNQLGQLGTNTRRGSRAPCK [H8L], with 3.37; and YTFGSNQHGQLGTTTRRGSRAPCK [N14T], with 2.98. On to YTFGSNQHGQLGTPTRRGSRAPCK [N14P], for which the protein stability index is 3.77. Turning to YTFGSNQHGQLGTETRRGSRAPCK [N14E], the protein stability index was found to be 3.69. With YTFGSNQHGQLGTSTRRGSRAPCK [N14S] the figure was 3.88; with YTFGSNQHGQLGTWTRRGSRAPCK [N14W], 3.21; with YTFGSNQHGQLGTFTRRGSRAPCK [N14F], 3.71. Take YTFGSNQHGQLGTRTRRGSRAPCK [N14R]: the protein stability index worked out at 3.88. Turning to YTFGSNQHGQLGTYTRRGSRAPCK [N14Y], the protein stability index was 3.63.

With YTFGSNQHGQLGTLTRRGSRAPCK [N14L], the protein stability index is 3.51.

Consider YTFGSNQHGQLGTQTRRGSRAPCK [N14Q], for which the protein stability index was 3.69. Take YTFGSNQHGQLGTCTRRGSRAPCK [N14C]: the protein stability index was 2.29. Take YTFGSNQHGQLGTMTRRGSRAPCK [N14M]: the protein stability index was 3.44. With YTFGSNQHGQLGTVTRRGSRAPCK [N14V], the protein stability index worked out at 2.06.

As for YTFGSNQHGQLGTKTRRGSRAPCK [N14K], the protein stability index stood at 3.88. For the variant YTFGSNQHGQLGTDTRRGSRAPCK [N14D], the protein stability index worked out at 4.35. Consider YTFGSNQHGQLGTITRRGSRAPCK [N14I], for which the protein stability index came out at 2.73.

On to YTFGSNQHGQLGTHTRRGSRAPCK [N14H], for which the protein stability index turned out to be 4.07. Take YTFGSNQHGQLGTATRRGSRAPCK [N14A]: the protein stability index is 3.38. With YTFGSNQHGQLGTGTRRGSRAPCK [N14G] the figure was 3.49.

As to YTFGSNQHGQLATNTRRGSRAPCK [G12A], the protein stability index came out at 4.36. On to YTFGSNQHGQLTTNTRRGSRAPCK [G12T], for which the protein stability index amounted to 4.32. Regarding YTFGSNQHGQLYTNTRRGSRAPCK [G12Y], the protein stability index worked out at 3.83. With YTFGSNQHGQLWTNTRRGSRAPCK [G12W] the figure was 2.73; with YTFGSNQHGQLFTNTRRGSRAPCK [G12F], 3.09; with YTFGSNQHGQLNTNTRRGSRAPCK [G12N], 4.18. Then YTFGSNQHGQLRTNTRRGSRAPCK [G12R], with 4.11; and YTFGSNQHGQLMTNTRRGSRAPCK [G12M], with 3.84. Consider YTFGSNQHGQLSTNTRRGSRAPCK [G12S], for which the protein stability index is 3.97. YTFGSNQHGQLDTNTRRGSRAPCK [G12D]: the protein stability index worked out at 4.68. With YTFGSNQHGQLQTNTRRGSRAPCK [G12Q], the protein stability index stood at 3.93.

In the case of YTFGSNQHGQLCTNTRRGSRAPCK [G12C], the protein stability index was determined as 3.71. Consider YTFGSNQHGQLLTNTRRGSRAPCK [G12L], for which the protein stability index was 4.15. For the variant YTFGSNQHGQLITNTRRGSRAPCK [G12I], the protein stability index amounted to 3.79.

On to YTFGSNQHGQLPTNTRRGSRAPCK [G12P], for which the protein stability index came to 4.43.

On to YTFGSNQHGQLVTNTRRGSRAPCK [G12V], for which the protein stability index amounted to 4.11. For YTFGSNQHGQLHTNTRRGSRAPCK [G12H], the protein stability index turned out to be 4.37. On to YTFGSNQHGQLKTNTRRGSRAPCK [G12K], for which the protein stability index was 3.98. Turning to YTFGSNQHGQLETNTRRGSRAPCK [G12E], the protein stability index is 4.19.

With YTFGSNQHLQLGTNTRRGSRAPCK [G9L], the protein stability index worked out at 3.19. Then YTFGSNQHMQLGTNTRRGSRAPCK [G9M], with 3.19; and YTFGSNQHHQLGTNTRRGSRAPCK [G9H], with 4.16. As to YTFGSNQHPQLGTNTRRGSRAPCK [G9P], the protein stability index is 3.38. Then YTFGSNQHQQLGTNTRRGSRAPCK [G9Q], with 3.94; and YTFGSNQHDQLGTNTRRGSRAPCK [G9D], with 4.11. Consider YTFGSNQHAQLGTNTRRGSRAPCK [G9A], for which the protein stability index worked out at 3.39. Consider YTFGSNQHWQLGTNTRRGSRAPCK [G9W], for which the protein stability index was 2.16.

As to YTFGSNQHFQLGTNTRRGSRAPCK [G9F], the protein stability index came to 2.1.

YTFGSNQHCQLGTNTRRGSRAPCK [G9C]: the protein stability index was 3.48. As for YTFGSNQHIQLGTNTRRGSRAPCK [G9I], the protein stability index worked out at 3.05. In the case of YTFGSNQHNQLGTNTRRGSRAPCK [G9N], the protein stability index turned out to be 3.98.

YTFGSNQHKQLGTNTRRGSRAPCK [G9K]: the protein stability index came out at 4.12. On to YTFGSNQHYQLGTNTRRGSRAPCK [G9Y], for which the protein stability index worked out at 2.23. YTFGSNQHEQLGTNTRRGSRAPCK [G9E]: the protein stability index came out at 3.98.

Regarding YTFGSNQHSQLGTNTRRGSRAPCK [G9S], the protein stability index turned out to be 4.15.

In the case of YTFGSNQHTQLGTNTRRGSRAPCK [G9T], the protein stability index turned out to be 3.82.

Regarding YTFGSNQHVQLGTNTRRGSRAPCK [G9V], the protein stability index is 2.78. Regarding YTFGSNQHRQLGTNTRRGSRAPCK [G9R], the protein stability index was 3.94.
